Test results taken from publication PMC11156904, “Nucleic acid mediated activation of a short prokaryotic Argonaute immune system”.
Values joined by “and” are separate entries in the source; they are usually repeats but may differ in a detail not shown here. Identical values can stand only once.

T1: CrtSPARTA TIR-APAZ;CrtSPARTA short pAgo (CrtAgo) (Crenotalea thermophila;Crenotalea …, UniProt A0A1I7NFG5;A0A1I7NFD7 1-450;1-507, |)
T1 sequence 1: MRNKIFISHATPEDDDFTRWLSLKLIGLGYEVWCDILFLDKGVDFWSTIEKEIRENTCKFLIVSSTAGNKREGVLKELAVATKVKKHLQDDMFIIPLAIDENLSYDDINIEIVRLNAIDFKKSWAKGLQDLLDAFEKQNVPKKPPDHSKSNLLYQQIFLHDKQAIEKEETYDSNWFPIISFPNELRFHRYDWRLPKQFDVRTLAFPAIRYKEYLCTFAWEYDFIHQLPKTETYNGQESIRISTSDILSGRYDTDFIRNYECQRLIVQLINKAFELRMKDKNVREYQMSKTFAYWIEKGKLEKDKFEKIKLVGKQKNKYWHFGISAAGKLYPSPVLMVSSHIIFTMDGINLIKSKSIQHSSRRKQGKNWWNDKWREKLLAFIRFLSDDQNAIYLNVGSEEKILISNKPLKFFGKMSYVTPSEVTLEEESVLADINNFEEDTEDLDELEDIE
T1 sequence 2: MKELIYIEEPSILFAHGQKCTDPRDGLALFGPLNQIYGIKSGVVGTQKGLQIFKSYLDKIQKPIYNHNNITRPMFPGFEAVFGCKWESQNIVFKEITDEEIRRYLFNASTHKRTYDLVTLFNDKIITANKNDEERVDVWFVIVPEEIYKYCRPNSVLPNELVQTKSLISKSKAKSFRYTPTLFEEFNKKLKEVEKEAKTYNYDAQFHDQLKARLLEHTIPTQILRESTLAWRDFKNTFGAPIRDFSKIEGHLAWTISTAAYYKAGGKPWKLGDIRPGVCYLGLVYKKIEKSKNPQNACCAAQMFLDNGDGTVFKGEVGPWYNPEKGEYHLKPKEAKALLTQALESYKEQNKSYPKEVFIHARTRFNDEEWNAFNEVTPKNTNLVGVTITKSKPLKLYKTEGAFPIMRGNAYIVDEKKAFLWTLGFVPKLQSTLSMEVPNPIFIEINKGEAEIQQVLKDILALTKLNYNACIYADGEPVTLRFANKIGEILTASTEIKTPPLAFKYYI

T2: CrtSPARTA TIR-APAZ;CrtSPARTA short pAgo loop10-9 deletion (Crenotalea thermophila;Crenotalea …, UniProt A0A1I7NFG5;A0A1I7NFD7 1-450;1-507, |del322-327)
T2 sequence 1: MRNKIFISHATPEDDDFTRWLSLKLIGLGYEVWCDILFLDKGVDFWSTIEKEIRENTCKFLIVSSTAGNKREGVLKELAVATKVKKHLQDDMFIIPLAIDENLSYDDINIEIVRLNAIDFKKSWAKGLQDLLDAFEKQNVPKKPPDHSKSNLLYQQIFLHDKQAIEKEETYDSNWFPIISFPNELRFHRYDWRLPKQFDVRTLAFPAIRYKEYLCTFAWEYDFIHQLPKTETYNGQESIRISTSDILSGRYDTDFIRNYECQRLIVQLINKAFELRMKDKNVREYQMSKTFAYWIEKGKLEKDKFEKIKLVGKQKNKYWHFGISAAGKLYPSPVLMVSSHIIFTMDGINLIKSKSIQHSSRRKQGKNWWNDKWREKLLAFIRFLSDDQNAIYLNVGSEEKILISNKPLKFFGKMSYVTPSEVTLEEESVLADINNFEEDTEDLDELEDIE
T2 sequence 2: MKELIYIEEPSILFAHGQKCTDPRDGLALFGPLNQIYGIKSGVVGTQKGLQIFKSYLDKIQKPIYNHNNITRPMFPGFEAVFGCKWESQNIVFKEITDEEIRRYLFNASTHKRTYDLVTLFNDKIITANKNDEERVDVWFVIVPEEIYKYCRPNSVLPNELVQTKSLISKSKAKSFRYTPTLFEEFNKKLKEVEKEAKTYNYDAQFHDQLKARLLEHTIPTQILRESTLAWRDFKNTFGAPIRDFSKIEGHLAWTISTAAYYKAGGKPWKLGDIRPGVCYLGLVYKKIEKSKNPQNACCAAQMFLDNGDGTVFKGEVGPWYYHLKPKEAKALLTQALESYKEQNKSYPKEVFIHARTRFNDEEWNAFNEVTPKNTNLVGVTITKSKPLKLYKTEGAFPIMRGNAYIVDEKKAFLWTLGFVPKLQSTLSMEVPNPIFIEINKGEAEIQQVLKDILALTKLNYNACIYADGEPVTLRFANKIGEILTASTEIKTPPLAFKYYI


Key:
[1] = target: SPARTA heterodimer (TIR-APAZ/short pAgo complex) from Crenotalea thermophila (Crenotalea thermophila); assay: cryo-EM structure; SPARTA oligomer bound to gRNA/tDNA, nominal 3.15-3.35 Å
[2] = target: SPARTA heterodimer (TIR-APAZ/short pAgo complex) from Crenotalea thermophila (Crenotalea thermophila); assay: mass photometry; CrtSPARTA incubated with gRNA/tDNA (5 mM MgCl2, 55 °C, 12 hours), 100-fold diluted, in 20 mM HEPES pH 7.5, 100 mM KCl, 2 mM DTT
[3] = target: T1, CrtSPARTA TIR-APAZ;CrtSPARTA short pAgo …; assay: cryo-EM structure; 5 mM MgCl2; Mg2+ seen in MID pocket; 4 heterodimers, one duplex each; 20 mM HEPES pH 7.5, 100 mM KCl, 1 mM DTT, 5 mM MgCl2; 1.5 mg/ml SPARTA, 16 uM gRNA 37 C 1 h, then 16 uM tDNA 55 C 12 h; conditions: protein: recombinant;recombinant; tags: 6xHis-MBP removed by TEV;none stated on this chain; copies: 1;1; 21 bp; tDNA 5' overhang 23 nt and 3' overhang 1 nt; guide loaded first, then target
[4] = target: T2, CrtSPARTA TIR-APAZ;CrtSPARTA short pAgo …; assay: mass photometry; binds as single heterodimer (~134.6 kDa, expected 132.6); loses dimer formation; 20 mM HEPES pH 7.5, 100 mM KCl, 1 mM DTT, 5 mM MgCl2; 1.5 mg/ml SPARTA, 16 uM gRNA 37 C 1 h, then 16 uM tDNA 55 C 12 h; conditions: protein: recombinant;recombinant; tags: 6xHis-MBP removed by TEV;none stated on this chain; copies: 1;1; 21 bp; tDNA 5' overhang 23 nt and 3' overhang 1 nt; guide loaded first, then target

Row | Molecule | stoichiometry N [1] | stoichiometry N [2] | binding result [3] | binding result [4]
1 | SPARTA heterodimer (TIR-APAZ/short pAgo complex) from Crenotalea thermophila | 4 | 2 and 4 | – | –
2 | gRNA/tDNA duplex (DNA:RNA, 5'-phosphate on guide RNA) RNA: UGAGGUAGUAGGUUGUAUAGU DNA: AAACGACGGCCAGTGCCAAGCTTACTATACAACCTACTACCTCAT | – | – | binds | binds
